Laboratory results as given in article PMC10194888 (PLOS ONE, 2023).

What was measured:
[1] = biological target: the molecule itself; assay: AUC; sedimentation velocity, 50,000 rpm, 20 °C, Working Buffer (20 mM HEPES, 0.1 M NaCl, pH 7.5, 2 mM n-octyl-β-D-glucopyranoside); 10 μM, 31 μM and 100 μM; c(s) analysis; monomer to dimer
[2] = biological target: O83132; assay: as above

B1: TP0094 (putative phosphotransacetylase, Pta) of Treponema pallidum, wild-type (enzyme, UniProt O83132 1-336, looked up)
chain: MTFVESMQRRAVLAQKRLVLPEACEQRTLEAARLIVFRNIAAKVFLVGCERDIKNTADRCGIDLTDMVVIDPSVSKHRDQFAERYFQKRKHKGISLAQAAEDMRDPLRFAAMMLDQGHADAMVAGAENTTARVLRAGLTIIGTLPSVKTASSCFVMDTNNPRLGGTRGLFIFSDCAVIPTPTAEQLADIACSAAESCRTFIGEEPTVALLSYSTKGSGGDSDENILRVREAVRILHERRVDFTFDGELQLDAALVPKITEKKAPHSPITGKVNTLVFPDLSSGNIGYKLVQRLSDADAYGPFLQGFAKPLSDLSRGCSVEDIVAACAVTLVQSNGR
notes: TP0094, putative phosphotransacetylase (Pta; EC 2.3.1.8) of Treponema pallidum; DNA fragment encoding all amino-acid residues of TP0094; also called TpPta; WT TP0094; source: E. coli BL21 AI (co-transformed with pGroESL), purified
stoichiometry N [1]: 2 | mass purity of the dimer [2]: we estimate the mass purity of the dimer to range from 95–97%
